Laboratory results: the DeepSol protein solubility set

Assay: soluble on expression in E. coli; label from the status in PepcDB or PDB records

Row | Sequence | soluble on expression in E. coli
1 | MSLTGNPPNPAGIKTDYLWKKILTPQGLTDILENYAQVVEEKDEKTGKKKKVQIFPRYHQLDVVRKLLAHAEWHGAGMRYLVQHSAGSGKSNSIAWLAHQLISLKKDDKEIFDSIIVITDRRVLDKQIRDTIKQFAQVGSTVGHAERSGDLRKFIESGKKIIISTVQKFPFILDEIGNEHRGRKFAIIIDEAHSSQGGRTAAAMSEALSDSKDQKDPEDTINDALQKRMEARKMLPNASYFAFTATPKNKTLELFGEPYKDGDKIKHRPFHNYTMKQAIQEGFILDVLRYYTPVNSYYKLIKTVESDPEFDTKKAKKKLRKYVESHDYAIRLKAEIIVDHFQEQVIALNKIGGQARAMVVTNGIERAIQYYHAIRDYLLELNSPYKAIVAFSGEHEYGGVKVTEATLNGFPSSQIEDKIEEEPYRFLICADKFQTGYDEPLLHTMYVDKVLSGIKAVQTLSRLNRAHPKKHDVFVLDFMNDTDTIQDAFSDYYRTTVLSDETDPNKLHDLKSDLDSYQAYSPEQIEQFVELYLGGADRDKLDPILDVCVATYKDHLDEDEQVDFKSKAKAFSRTYGFLASILPYTNADWEKLSIFLNFLIPKLPAPREEDLSKGILEAIDMDSYRVEKQAVVNIQLPDSDSEIEPVPTEAGGFKPEPELDRLSNILKTFNDQFGNIRWTDSDRVHRLITEEIPARVAADVAYQNAKKNSDKQNAKIEHDKALARVMIALMKDDTQLFKLFSDNESFRRTLTDAIFERTYSEGHHHHHH | not soluble
2 | NDGTTVTPLCTSPVVQCGEGTLFGGDEPARTWFTAAQSSGLAASGNLPSYDPKFNRGVSGSFGTSYVGREGESVRKELSAKGYKVTMTSAPGDGIPKGSVVNVIAPVPLKPGGTIELFISDGTRPRTTPPSTTRRPNPTEEVVPGTGVSQNDLDDLAHQLQQLLPGF | not soluble
3 | MGSDKIHHHHHHLISTANITMQFGPEPLFENISAQFGHGNRYGLIGANGCGKSTFMKILSGALAPTSGNVSITPGLKVGNLSQDQFAFEQHSVIDTVIMGDMKLWKVKQEREAIYAKPDMTDEDGMRVGDLESEFAEMDGYSAESRAGEILIEAGIDESMHFGLMQQVPPGKKLRVLLAQALFANPDILLLDEPTNNLDIHTISWLETELNKRKCTMIIISHDRHFLNAVCTHMADIDYGELRIYPGNYEFFLAQSSLIREQLLAGNAKKSAEIDELQDFVNRFGANASKAKQASSRAKKMDKIKLDDVKSSSRITPSIRFEAGKKMHRQALILEGLGHGFDEGMLFTGGDLILEAGAKLAIIGENGVGKTTLLRCLVNELSHKEGVVKWSENAAVGYCPQDSSADFDNDLTLMDWMSQWRLPKHNDLMVRGMLGRLLFTEDDANKKARNCSGGEKNRLLFGKLMMQDVNVLIMDEPTNHMDMEAIEALNNALKDFEGTLIFVSHDREFVSSLATRVIDIKDKKLINFQGSFDEYLASQSEAQKIA | not soluble
4 | MEMKQISETTLKITISMDDLEERGMELKDFLIPQEKTEEFFYSVMDELDLPDNFKDSGMLSFRVTPRKDRLDVFVTKSEINKDINLEDLAEFGDMSQMTPEDFFKSLEQSMREKGDVKAHEKLEKIEEIMEDVVEATLANQSEAADPSTNHESEPLDYVHYVLDFSTITEAVAFAKTIDFSIEASELYKGSNCYHMTILLDVQQQPSYFANVMYARLIEHANPGSKTRAYLQEHGLQLMLDGAVEQLQKIELG | not soluble
5 | MSRMIFLFLIPVVTSCIPTQQIEMPCPTDWEKFERPSGPWCVKLFVGLYLQGNRNEASARCAAEGAVLSGVQNQAELNAMTRQFTKLRYGYFWVGAMRKTSCLMSQLTATCTALNSFEWTDGSTTGTDGFIWKTGDPNNYLYNLYE | not soluble
6 | MAFHMPLKELQPVDTSLPEHVVKGAVVIDKEFTIWNHRAVIPSNALHTVFITINLLEQKLTDVVKMAARSMNLSEDDSYGLMADKPKRFITDDNLNSLGSGFILTLCASPDHYVKRITEILTEGNNISQMENAVKTLDEFSLDPALIEAFYRCSSLELLFSLIRDDRVCMSSTLLSTCLRALSSMLELAVGDFTWKSVPNDVVVSMASLVTGKAKREEANTLLAALQMLEQLVIGDDTTRDWILEEVPIETLIRHVEKSDERIALCALSLMNSMIRRCPDDEKRFELIKSLEVVPFRNAVHSSLLRGGGGVRNLNAIEQLVEVQRSLISAYETSPPTDAEVQKILDIESSEDVSEEIREMWKSQIGEHRCGRLAAISMVQFAEKSPQDLRMLISENTMRIEGGKWQLIPMWMRCCDIAAELFRVIPGRDELDRLIVVLFSTETPFPAVFACIVHLFHRTWREMQAKGGEMEKVACVVLEQLRHVLKRREIQDVEELSADLETFSYRAMQEIWREEQLGKENIQLHSEAVIQLKSKLRPKMEELVRINHLNYLKLGAVFRKPQKSKSLAKLAFWHWKLDASEKMLTITGCDGENYVEGVQRDDIRQVWIKDIADVTNNDEIDRKASSSRFTSSPSTQMLRGIRVQLKTTNDMKEGEVLMALTSDETQSVIWLEGLAELIGSKAVKSETDAMVERMLKMELRVRLLNVKLTNPEEKPEIPPIPDDIKSFISKF | not soluble
7 | ASNSQLNAMAHQIQEMFPQVPYHLVLQDLQLTRSVEITTDNILEGRIQVPF | soluble
8 | MIIYRDLISHDVMFSDIYKIREIADGLCLEVEGKMVSRTEGNIDDSLIGGNASAEGPEGEGTESTVITGVDIVMNHHLQETSFTKEAYKKYIKDYMKSIKGKLEEQRPERVKPFMTGAAEQIKHILANFKNYQFFIGENMNPDGMVALLDYREDGVTPYMIFFKDGLEMEKCLEHHHHHH | soluble
9 | MGSDKIHHHHHHMTTLTFQSTTLSAIHQNNQIWLTVTEIGKALGYSDPFKSVKNIYDRHADEFTPQMTALIDMRTNGGIQKVRIFSLRGAHLIGMLSHTKVAKDFRRWVLDILDREAQQPKQLALPQPEKTYTVPLTEYRNCHLKTRVFLVHSTSYCPFLSNKKALTWRAWGWLGLFISLACICLDKIHRRE | not soluble
10 | MQKSIDDMINEVLAVKVEKLPKTQDFSDLQEVCASKLQIINKEMDEADRKLEETLEKRKLVEKQLEDLQEQYKVKEFAFSLQKEFQDELKKVAEEIF | not soluble
11 | FNHPASAPYIQELATICQQLAQRLQRPVRLLEVGTRTGRAAESLLAQLNAGQIEYVGLEQSQEMLLSARQRLAPWPGARLSLWNADTLAAHAHSADIIWLNNALHRLLPEDPGLLATLQQLAVPGALLYVMEFRQLTPSALLSTLLLTNGQPEALLHNSADWAALFSAAGFNCQH | not soluble
12 | MNASQPPPGGRLPDEVFRKITAVDQGQSTLTQSGIQGLSARTLSSEPRGDLVFQLVEIIKKPGQSLGLYLREGNGKDRSDGVFVSRFGDNSELAKYGEVMRPGDEILTINNVEVSMMSIDDVVLILSIPRRLLLRIRYSKSMRHEIISSRSRESERPVVVFHKYDDRRDSETNAPILSQPTSTANTWLGKKSRQQMEEMRNATTSSTLRTHASTSSPRNHFAPRLVNGHSHSIGVPSASTTSHDHQYQRFASEPSDSVSRTARVPPPRLASATVRRTESFNSAPGVSTSAPMYTLPRSSTAVPPPDILGSIPYSARDPLMRSSADLPYDPMTGRLSSSVPTDPLLSRSLCSPILPRTLRQANDSNKSNSLPRRRIMTGGRNVKWRNDVVSTSDLCGEESDGAISAPEYSSPPFSRLTQQQQFRLSNGSPGRTVNDIFSAAEYRNWAGPYDPRGMYGPFPPGQRATRWSHTYGEQRAPRTSSLPGRTVLAQSLVGSPVLPRHPPPIVQDRPSAVFDRYHVSPLMNRRAPLRAAGPGINVDRLSVSSLTGILYVHIVEGRGLKIPEKQKGLTEEMYCVLEVDEQHRARTGVSTIEQKFKWRETFHIDVVNATVSNFFVYSWHPQFRHKLCHKGSLKLLEAFVVDQLNDDRVFALNLEPRGQLIVRIGFHDLQAVFRRTVNPRLNGVFGISLSRLVQRERRDTPIVLTRLIQEIEKRGVDYSGLYVLCGSVEKKKMLRAELESNPLGTELAAESIPDTNVIACLIKDFLRELPEPLISPQIHGMLLEAASVALPNDVQTNRHLVLKIIDCLQLSAKNCLLLVLDHLSTVLCSSPHNGLTPTRLSLIFAPLLFFCLDTFSPYTISPTSKMAAVRTLDINQASSSLQMILSIWPSRVSELVEFFPFLLNYPTVSYSSPNPHSESGSDSPATTCQKGGVIAYVSESQC | not soluble
13 | MSLSEVQPIPVTVSQYSYYSDKNYPKRRTMEDAHVICDPLIEVEGRVYSLYAIFDGHRGRTAAQHCAKIVKDKIKEVLQRKDEGFEEMMQDAMYEMDMSLKENGIEYSGCCALMCIIEIKDKKRIIHMANCGDSCGIIIGTNEVIPMSEEHKATNENEAKRIKESGGMIINGRVSGDVAVTRGLGDHHLKQWVVSEPFVKEVEWQEDYKYIVLGCDGLWDTLNGNQIKEVLESNNCEFTSSAKSLTQLAIGKGSTDNITTIVLKLEGHHHHHH | soluble
14 | MQRVTITLDDDLLETLDSLSQRRGYNNRSEAIRDILRSALAQEATQQHGTQGFAVLSYVYEHEKRDLASRIVSTQHHHHDLSVATLHVHINHDDCLEIAVLKGDMGDVQHFADDVIAQRGVRHGHLQCLPKED | soluble
15 | AVEPKEDTITVTAAPAPQESAWGPAATIAARQSATGTKTDTPIQKVPQSISVVTAEEMALHQPKSVKEALSYTPGVSVGTRGASNTYDHLIIRGFAAEGQSQNNYLNGLKLQGNFYNDAVIDPYMLERAEIMRGPVSVLYGKSSPGGLLNMVSKRPTTEPLKEVQFKAGTDSLFQTGFDFSDSLDDDGVYSYRLTGLARSANAQQKGSEEQRYAIAPAFTWRPDDKTNFTFLSYFQNEPETGYYGWLPKEGTVEPLPNGKRLPTDFNEGAKNNTYSRNEKMVGYSFDHEFNDTFTVRQNLRFAENKTSQNSVYGYGVCSDPANAYSKQCAALAPADKGHYLARKYVVDDEKLQNFSVDTQLQSKFATGDIDHTLLTGVDFMRMRNDINAWFGYDDSVPLLNLYNPSSHHHHHHGSSVNTDFDFNAKDPANSGPYRILNKQKQTGVYVQDQAQWDKVLVTLGGRYDWADQESLNRVAGTTDKRDDKQFTWRGGVNYLFDNGVTPYFSYSESFEPSSQVGKDGNIFAPSKGKQYEVGVKYVPEDRPIVVTGAVYNLTKTNNLMADPEGSFFSVEGGEIRARGVEIEAKAALSASVNVVGSYTYTDAEYTTDTTYKGNTPAQVPKHMASLWADYTFFDGPLSGLTLGTGGRYTGSSYGDPANSFKVGSYTVVDALVRYDLARVGMAGSNVALHVNNLFDREYVASCFNTYGCFWGAERQVVATATFRF | soluble
16 | YLLGHSLGELTCLSVNSLFSLKDLFDIANFRNKLMVTSTEKYLVAHNINRSNKFEMWALSSPRATDLPQEVQKLLNSPNLLSSSQNTISVANANSVKQCVVTGLVDDLESLRTELNLRFPRLRITELTNPYNIPFHNSTVLRPVQEPLYDYIWDILKKNGTHTLMELNHPIIANLDGNISYYIHHALDRFVKCSSRTVQFTMCYDTINSGTPVEIDKSICFGPGNVIYNLIRRNCPQVDTIEYTS | soluble
17 | KKTFLTVRGNLTFNKDKIIENDEPPVDYPWMETRGTNVNATWGFIADGLFTSQAEIEDHATQFGTVHVGDIKYRDLNGDGVIDNYDKTVIGRGDVPRIYYGFGADLQIGDFSISALFQGTGQADRYLDGICIKPFWDDEGRDNVFANIHDRWSPDDPTNQDVFYPRMYVGSDANTNNVQKSSWWVKDVSFLRLKQLNISYNIPKKLLDRCFLKSASVYLMGTNLLTFSNFKLWDPELNTSNGTAYPNVSSYSVGVKFSF | not soluble
18 | GMTGFVINTRRAPFDDWRLREALLLAFNFEFINDTVTGGVMPRITSYFSGTDLAYRPGTASGREAELLAPFAADLPPGTLEGYALPQGDGTARNRTNLRRAAQFLEQAGFRIEQGQLLGPDGAPLALRFLLRQGDSDMQTVLEIYTRALERLGIAAQIEKVDNAQYTARVAELDFDLTPFRRDLSLSPGNEQRLYWGSHSAGQPGTRNLMGAASPAIDAMIDRMLAATTEDELTAATRALDRVLTAGRYVIPIWRFD | not soluble
